{"source": "the supplement of paper PMC11316812", "key": {"MCF7": {"test_system": "MCF7", "assay": "percentage of EdU-negative (G0-arrested) nuclei per well, 72 h; higher = more G0 arrest", "conditions": "reference: sequence is the full UniProt precursor, the tested protein was the secreted form or ectodomain"}, "hTERT-HMEC": {"test_system": "hTERT-HMEC", "assay": "percentage of EdU-negative (G0-arrested) nuclei per well, 72 h; higher = more G0 arrest", "conditions": "reference: sequence is the full UniProt precursor, the tested protein was the secreted form or ectodomain"}, "[1]": {"conditions": "protein concentration 0.0225 µM"}, "[2]": {"conditions": "protein concentration 0.00625 µM"}, "[3]": {"conditions": "protein concentration 0.0625 µM"}, "[4]": {"conditions": "protein concentration 0.03125 µM"}, "[5]": {"conditions": "protein concentration 0.3125 µM"}, "[6]": {"conditions": "protein concentration 0.016015 µM"}, "[7]": {"conditions": "protein concentration 0.16015 µM"}}, "note": "± gives the standard deviation of the averaged measurements.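 Also: secreted proteins added to cultured cells, EdU pulse at the end, nuclei found by Hoechst imaging, EdU status from nuclear versus surrounding ring intensity ratio, PBS as neutral control.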", "data": [{"sequence": "MSRGLQLLLLSCAYSLAPATPEVKVACSEDVDLPCTAPWDPQVPYTVSWVKLLEGGEERMETPQEDHLRGQHYHQKGQNGSFDAPNERPYSLKIRNTTSCNSGTYRCTLQDPDGQRNLSGKVILRVTGCPAQRKEETFKKYRAEIVLLLALVIFYLTLIIFTCKFARLQSIFPDFSKAGMERAFLPVTSPNKHLGLVTPHKTELV", "values": [{"measurement": "percentage of EdU-negative", "setting": "MCF7; [1]", "result": "25.6 ± 5.2", "unit": "%"}, {"measurement": "percentage of EdU-negative", "setting": "MCF7; protein concentration 0.225 µM", "result": "25.7 ± 2.3", "unit": "%"}, {"measurement": "percentage of EdU-negative", "setting": "hTERT-HMEC; [1]", "result": "4.68 ± 0.067", "unit": "%"}, {"measurement": "percentage of EdU-negative", "setting": "hTERT-HMEC; protein concentration 0.225 µM", "result": "8.57 ± 0.3", "unit": "%"}]}, {"sequence": "MKALGAVLLALLLFGRPGRGQTQQEEEEEDEDHGPDDYDEEDEDEVEEEETNRLPGGRSRVLLRCYTCKSLPRDERCNLTQNCSHGQTCTTLIAHGNTESGLLTTHSTWCTDSCQPITKTVEGTQVTMTCCQSSLCNVPPWQSSRVQDPTGKGAGGPRGSSETVGAALLLNLLAGLGAMGARRP [Q8IV16]", "values": [{"measurement": "percentage of EdU-negative", "setting": "MCF7; [1]", "result": "28.3 ± 1.3", "unit": "%"}, {"measurement": "percentage of EdU-negative", "setting": "MCF7; protein concentration 0.225 µM", "result": "24.9 ± 0.96", "unit": "%"}, {"measurement": "percentage of EdU-negative", "setting": "hTERT-HMEC; [1]", "result": "4.99 ± 0.54", "unit": "%"}, {"measurement": "percentage of EdU-negative", "setting": "hTERT-HMEC; protein concentration 0.225 µM", "result": "4.82 ± 0.83", "unit": "%"}]}, {"sequence": "MKVWLLLGLLLVHEALEDVTGQHLPKNKRPKEPGENRIKPTNKKVKPKIPKMKDRDSANSAPKTQSIMMQVLDKGRFQKPAATLSLLAGQTVELRCKGSRIGWSYPAYLDTFKDSRLSVKQNERYGQLTLVNSTSADTGEFSCWVQLCSGYICRKDEAKTGSTYIFFTEKGELFVPSPSYFDVVYLNPDRQAVVPCRVTVLSAKVTLHREFPAKEIPANGTDIVYDMKRGFVYLQPHSEHQGVVYCRAEAGGRSQISVKYQLLYVAVPSGPPSTTILASSNKVKSGDDISVLCTVLGEPDVEVEFTWIFPGQKDERPVTIQDTWRLIHRGLGHTTRISQSVITVEDFETIDAGYYICTAQNLQGQTTVATTVEFS", "values": [{"measurement": "percentage of EdU-negative", "setting": "MCF7; [2]", "result": "27.9 ± 0.57", "unit": "%"}, {"measurement": "percentage of EdU-negative", "setting": "MCF7; [3]", "result": "29.4 ± 1", "unit": "%"}, {"measurement": "percentage of EdU-negative", "setting": "hTERT-HMEC; [2]", "result": "4.49 ± 0.2", "unit": "%"}, {"measurement": "percentage of EdU-negative", "setting": "hTERT-HMEC; [3]", "result": "5.36 ± 0.45", "unit": "%"}]}, {"sequence": "MGIGRSEGGRRGAALGVLLALGAALLAVGSASEYDYVSFQSDIGPYQSGRFYTKPPQCVDIPADLRLCHNVGYKKMVLPNLLEHETMAEVKQQASSWVPLLNKNCHAGTQVFLCSLFAPVCLDRPIYPCRWLCEAVRDSCEPVMQFFGFYWPEMLKCDKFPEGDVCIAMTPPNATEASKPQGTTVCPPCDNELKSEAIIEHLCASEFALRMKIKEVKKENGDKKIVPKKKKPLKLGPIKKKDLKKLVLYLKNGADCPCHQLDNLSHHFLIMGRKVKSQYLLTAIHKWDKKNKEFKNFMKKMKNHECPTFQSVFK [Q8N474]", "values": [{"measurement": "percentage of EdU-negative", "setting": "MCF7; protein concentration 0.008 µM", "result": "25.5 ± 1.6", "unit": "%"}, {"measurement": "percentage of EdU-negative", "setting": "MCF7; protein concentration 0.08 µM", "result": "26.5 ± 2.3", "unit": "%"}, {"measurement": "percentage of EdU-negative", "setting": "hTERT-HMEC; protein concentration 0.008 µM", "result": "5.94 ± 0.1", "unit": "%"}, {"measurement": "percentage of EdU-negative", "setting": "hTERT-HMEC; protein concentration 0.08 µM", "result": "7.36 ± 1.1", "unit": "%"}]}, {"sequence": "MTPHRLLPPLLLLLALLLAASPGGALARCPGCGQGVQAGCPGGCVEEEDGGSPAEGCAEAEGCLRREGQECGVYTPNCAPGLQCHPPKDDEAPLRALLLGRGRCLPARAPAVAEENPKESKPQAGTARPQDVNRRDQQRNPGTSTTPSQPNSAGVQDTEMGPCRRHLDSVLQQLQTEVYRGAQTLYVPNCDHRGFYRKRQCRSSQGQRRGPCWCVDRMGKSLPGSPDGNGSSSCPTGSSG", "values": [{"measurement": "percentage of EdU-negative", "setting": "MCF7; [4]", "result": "25 ± 1.6", "unit": "%"}, {"measurement": "percentage of EdU-negative", "setting": "MCF7; [5]", "result": "25.79 ± 0.037", "unit": "%"}, {"measurement": "percentage of EdU-negative", "setting": "hTERT-HMEC; [4]", "result": "4.84 ± 0.44", "unit": "%"}, {"measurement": "percentage of EdU-negative", "setting": "hTERT-HMEC; [5]", "result": "5.17 ± 1", "unit": "%"}]}, {"sequence": "MKVLLRLICFIALLISSLEADKCKEREEKIILVSSANEIDVRPCPLNPNEHKGTITWYKDDSKTPVSTEQASRIHQHKEKLWFVPAKVEDSGHYYCVVRNSSYCLRIKISAKFVENEPNLCYNAQAIFKQKLPVAGDGGLVCPYMEFFKNENNELPKLQWYKDCKPLLLDNIHFSGVKDRLIVMNVAEKHRGNYTCHASYTYLGKQYPITRVIEFITLEENKPTRPVIVSPANETMEVDLGSQIQLICNVTGQLSDIAYWKWNGSVIDEDDPVLGEDYYSVENPANKRRSTLITVLNISEIESRFYKHPFTCFAKNTHGIDAAYIQLIYPVTNFQKHMIGICVTLTVIIVCSVFIYKIFKIDIVLWYRDSCYDFLPIKASDGKTYDAYILYPKTVGEGSTSDCDIFVFKVLPEVLEKQCGYKLFIYGRDDYVGEDIVEVINENVKKSRRLIIILVRETSGFSWLGGSSEEQIAMYNALVQDGIKVVLLELEKIQDYEKMPESIKFIKQKHGAIRWSGDFTQGPQSAKTRFWKNVRYHMPVQRRSPSSKHQLLSPATKEKLQREAHVPLG", "values": [{"measurement": "percentage of EdU-negative", "setting": "MCF7; [6]", "result": "25.8 ± 1.6", "unit": "%"}, {"measurement": "percentage of EdU-negative", "setting": "MCF7; [7]", "result": "26.2 ± 0.51", "unit": "%"}, {"measurement": "percentage of EdU-negative", "setting": "hTERT-HMEC; [6]", "result": "4.76 ± 0.26", "unit": "%"}, {"measurement": "percentage of EdU-negative", "setting": "hTERT-HMEC; [7]", "result": "5.92 ± 0.43", "unit": "%"}]}, {"sequence": "MRARPRPRPLWATVLALGALAGVGVGGPNICTTRGVSSCQQCLAVSPMCAWCSDEALPLGSPRCDLKENLLKDNCAPESIEFPVSEARVLEDRPLSDKGSGDSSQVTQVSPQRIALRLRPDDSKNFSIQVRQVEDYPVDIYYLMDLSYSMKDDLWSIQNLGTKLATQMRKLTSNLRIGFGAFVDKPVSPYMYISPPEALENPCYDMKTTCLPMFGYKHVLTLTDQVTRFNEEVKKQSVSRNRDAPEGGFDAIMQATVCDEKIGWRNDASHLLVFTTDAKTHIALDGRLAGIVQPNDGQCHVGSDNHYSASTTMDYPSLGLMTEKLSQKNINLIFAVTENVVNLYQNYSELIPGTTVGVLSMDSSNVLQLIVDAYGKIRSKVELEVRDLPEELSLSFNATCLNNEVIPGLKSCMGLKIGDTVSFSIEAKVRGCPQEKEKSFTIKPVGFKDSLIVQVTFDCDCACQAQAEPNSHRCNNGNGTFECGVCRCGPGWLGSQCECSEEDYRPSQQDECSPREGQPVCSQRGECLCGQCVCHSSDFGKITGKYCECDDFSCVRYKGEMCSGHGQCSCGDCLCDSDWTGYYCNCTTRTDTCMSSNGLLCSGRGKCECGSCVCIQPGSYGDTCEKCPTCPDACTFKKECVECKKFDRGALHDENTCNRYCRDEIESVKELKDTGKDAVNCTYKNEDDCVVRFQYYEDSSGKSILYVVEEPECPKGPDILVVLLSVMGAILLIGLAALLIWKLLITIHDRKEFAKFEEERARAKWDTANNPLYKEATSTFTNITYRGT", "values": [{"measurement": "percentage of EdU-negative", "setting": "MCF7; protein concentration 0.009 µM", "result": "26.2 ± 0.6", "unit": "%"}, {"measurement": "percentage of EdU-negative", "setting": "MCF7; protein concentration 0.09 µM", "result": "27.7 ± 1.2", "unit": "%"}, {"measurement": "percentage of EdU-negative", "setting": "hTERT-HMEC; protein concentration 0.009 µM", "result": "4.78 ± 0.31", "unit": "%"}, {"measurement": "percentage of EdU-negative", "setting": "hTERT-HMEC; protein concentration 0.09 µM", "result": "16.9 ± 4.2", "unit": "%"}]}, {"sequence": "MAAAVVLAAGLRAARRAVAATGVRGGQVRGAAGVTDGNEVAKAQQATPGGAAPTIFSRILDKSLPADILYEDQQCLVFRDVAPQAPVHFLVIPKKPIPRISQAEEEDQQLLGHLLLVAKQTAKAEGLGDGYRLVINDGKLGAQSVYHLHIHVLGGRQLQWPPG [Q9BX68]", "values": [{"measurement": "percentage of EdU-negative", "setting": "MCF7; [1]", "result": "24.7 ± 1.1", "unit": "%"}, {"measurement": "percentage of EdU-negative", "setting": "MCF7; protein concentration 0.225 µM", "result": "26.8 ± 0.95", "unit": "%"}, {"measurement": "percentage of EdU-negative", "setting": "hTERT-HMEC; [1]", "result": "4.56 ± 0.51", "unit": "%"}, {"measurement": "percentage of EdU-negative", "setting": "hTERT-HMEC; protein concentration 0.225 µM", "result": "5.01 ± 0.41", "unit": "%"}]}]}
